Measurements from paper PMC5401905, “Regulation of Inducible Potassium Transporter KdpFABC by the KdpD/KdpE Two-Component System in Mycobacterium smegmatis”.

Legend:
[1] = target: T1, KdpE (Mycobacterium smegmatis) (UniProt A0R399); assay: EMSA; conditions: 10 mM Tris pH 7.5 (20 C), 100 mM KCl, 1 mM EDTA, 0.1 mM DTT, 5% glycerol, 0.010 mg/mL BSA, 0.5 mM Na2ATP; 25 C, 1 h; 6% native PAGE in 0.25x TBE
T1 sequence: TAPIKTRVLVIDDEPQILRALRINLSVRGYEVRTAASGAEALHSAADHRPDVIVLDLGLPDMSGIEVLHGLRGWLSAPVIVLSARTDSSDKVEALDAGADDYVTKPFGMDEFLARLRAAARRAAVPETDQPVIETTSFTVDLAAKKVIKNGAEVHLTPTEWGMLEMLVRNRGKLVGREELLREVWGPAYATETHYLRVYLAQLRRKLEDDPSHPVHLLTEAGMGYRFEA

[2] = target: T1, KdpE (Mycobacterium smegmatis); assay: competition; conditions: 10 mM Tris pH 7.5 (20 C), 100 mM KCl, 1 mM EDTA, 0.1 mM DTT, 5% glycerol, 0.010 mg/mL BSA, 0.5 mM Na2ATP; 25 C, 1 h; 6% native PAGE in 0.25x TBE
[3] = target: T1, KdpE (Mycobacterium smegmatis); assay: DNase I footprinting; conditions: 10 mM Tris pH 7.5 (20 C), 100 mM KCl, 1 mM EDTA, 0.1 mM DTT, 5% glycerol, 0.010 mg/mL BSA, 0.5 mM Na2ATP; 25 C, 1 h; 6% native PAGE in 0.25x TBE
KdpE = target: T2, KdpE (Mycobacterium smegmatis, UniProt A0R399 2-230); assay: EMSA; 0.5 mM ATP; 10 mM Tris pH 7.5 (20 C), 100 mM KCl, 1 mM EDTA, 0.1 mM DTT, 5% glycerol, 0.010 mg/mL BSA, 0.5 mM Na2ATP; 25 C, 1 h; 6% native PAGE in 0.25x TBE; conditions: protein: recombinant; tags: 6xHis (pET28a); chain copies: 2; blunt
T2 sequence: T1 sequence

## CCCGAGGCGCCGGCGCCCGGCCGAGCAGGTGCGTCGGGTGTCGGCAGGCGCGGCAGCCCGCGGAGCAAGCAGGGACATGAGCTTCGTCGAGTGGGTCACCCCTCGAACATCCATCAACCGAGCCATGACGACGAGTGTCCTGGCGGAGTCTTGGCCGCTGCTGTACAAACCTTGACGCCGCACTGACAGTCCGTCGGGAACCGCCTGTGCGCCGGCTTCGAACAAACGGTGTCAAATACGGCCGCCGCACCGTAAAGAAACCATCAAGGCCGCGTTCGCGGTCCTGAACTGGGCAGATCC (double strand) [PkdpF 300-bp probe]
[1]
  binding: binds
[2]
  binding: binds
[3]
  binding: binds

B1: FPC-18 (dsDNA)
DNA 1: AAGAAACCATCAAGGCCG
DNA 2: CGGCCTTGATGGTTTCTT
KdpE
  binding result: no binding

B2: FPC-22 (dsDNA)
DNA 1: CCGTAAAGAAACCATCAAGGCC
DNA 2: GGCCTTGATGGTTTCTTTACGG
KdpE
  binding result: binds

B3: FPC-33 (dsDNA)
DNA 1: ACCGTAAAGAAACCATCAAGGCCGCGTTCGCGG
DNA 2: CCGCGAACGCGGCCTTGATGGTTTCTTTACGGT
KdpE
  binding result: binds

B4: FPC-28 (dsDNA)
DNA 1: CCGTAAAGAAACCATCAAGGCCGCGTTC
DNA 2: GAACGCGGCCTTGATGGTTTCTTTACGG
KdpE
  binding result: binds
